Test system: small intestinal immune cells
Assay: Droplet-based scRNA-seq of small intestinal immune cells (LP and PP), OVA vs PBS, clustering and differential expression
Type: in vivo, mouse
Settings: for percentage of expressing cells in OVA-treated group / LN (average fold change): cluster ID 12, LP
Source text: To comprehensively characterize small intestinal immune cells, Applicants generated scRNA-Seq profiles for 58,067 immune cells collected from lamina propria (LP) and Peyer's patch (PP) regions at steady state and after induction of a type 2 inflammatory reaction to ovalbumin (OVA) (Brandt et al., 2003) (FIGS. 1A and 8A). To ensure sufficient representation of rare cells, Applicants combined a normalization strategy—removing by flow sorting either a portion of IgD+ naïve B cells, which are the most abundant cell type in PPs, or all CD19+ and CD3+ T cells (FIG. 8B, Methods)—with profiling of a sufficiently large number of cells number (P>0.99 to recover at least 15 cells from each cluster, Methods) by massively parallel scRNA-seq (Haber et al., 2017) (Methods). Applicants obtained 36,797 and 21,270 high quality cells passing initial filtering (Methods) from PP and LP regions, respectively.
Overall, Applicants annotated 27 cell subsets across the two compartments, spanning T cells, B cells, ILCs, dendritic cells (DCs), myeloid cells and stromal cells, in frequencies ranging from 0.07% to 14%. Briefly, Applicants first partitioned the cells from the PP regions by unsupervised clustering (Methods) into 46 clusters, retained the 97% of cells that were robustly assigned cell identities in each cluster (Methods), assigned the cells from the LP regions to the 46 clusters using a classifier (Methods), and visualized the data with scvis (Ding et al., 2018), a deep generative model-based method (FIGS. 1B and 8C, Methods). Next, Applicants identified genes that were differentially expressed between the cells in each cluster and the remaining cells (Table 1, Methods), as well as between pairs of clusters (Table 2), to elucidate identities of similar cell types/states. Applicants excluded from downstream analysis clusters mostly consisting of contaminants from epithelium, likely doublets, or cells with a small number of Unique Molecular Identifiers (UMIs) (FIGS. 1C and 8D), or lacking distinct markers (Methods). Altogether, Applicants retained 27 clusters spanning 85% of the cells and each associated with distinct marker genes (FIG. 8E, Methods).
To induce allergic reaction to OVA, 6 to 7 weeks old mice were sensitized twice, two weeks apart, with 50 μg of OVA plus 1 mg of aluminum potassium sulfate adjuvant via intraperitoneal injection. Two weeks later, mice were orally administered with 50 mg of OVA on every other day for a total of five times. 1 μg of α-CGRP peptide was administered simultaneously when indicated. Mice were deprived of food for 3-4 hours in cages with wood chip bedding for limiting antigen degradation in the stomach before each intragastric challenge.
Isolation of cells from Peyer's patches (PPs). Peyer's patches (PPs) were carefully dissected from the small intestine under a stereo microscope using a fine scissor, pierced once with a fine forcep. Tissues were digested in freshly made digestion buffer (RPMI-1640 containing 100 μg/ml Liberase™ and 50 μg/ml DNase I at 37° C. on a roto-mixer. After 15 min, tissues were very gently mixed using a 1 ml pipette. The supernatant was collected and added to ice-cold MACS buffer (pH 7.4; PBS plus 2% FCS and 2 mM EDTA). Pre-warmed (37° C.) fresh digestion buffer was added to the remaining tissues. After rotation at 37° C. for 15 min, the mixture was vigorously mixed using a 1 ml pipette for 1 min. Supernatants from the two steps were combined and passed through 70 μm filters and stained for FACS (below).
Isolation of cells from the lamina propria (LP). The small intestines were opened longitudinally and washed in ice-cold PBS. For scRNA-seq, roughly 0.5 cm of fragments from each of the distal, middle and proximal regions without visible PPs were collected. Epithelial cells were dissociated by tissue rotation in pre-warmed (37° C.) PBS containing 10 mM EDTA at 37° C. for 15 min, followed by additional incubation on ice for 15 min. Tissues were then shaken vigorously. […]

B1: OVA (protein, UniProt P01012 2-386, looked up)
Ovalbumin: GSIGAASMEFCFDVFKELKVHHANENIFYCPIAIMSALAMVYLGAKDSTRTQINKVVRFDKLPGFGDSIEAQCGTSVNVHSSLRDILNQITKPNDVYSFSLASRLYAEERYPILPEYLQCVKELYRGGLEPINFQTAADQARELINSWVESQTNGIIRNVLQPSSVDSQTAMVLVNAIVFKGLWEKAFKDEDTQAMPFRVTEQESKPVQMMYQIGLFRVASMASEKMKILELPFASGTMSMLVLLPDEVSGLEQLESIINFEKLTEWTSSNVMEERKIKVYLPRMKMEEKYNLTSVLMAMGITDVFSSSANLSGISSAESLKISQAVHAAHAEINEAGREVVGSAEAGVDAASVSEEFRADHPFLFCIKHIATNAVLFFGRCVSP
Cluster ID 6, PP, OVA vs PBS
  Dnajc7: LN (average fold change): 0.197
  Dusp1: LN (average fold change): −0.366
  Dusp5: LN (average fold change): −0.167
  Dusp18: LN (average fold change): −0.789
  Egr1: LN (average fold change): −0.987
  Emp3: LN (average fold change): 0.172
  Erdr1: LN (average fold change): −0.520
  Fabp2: LN (average fold change): −1.495
  Fam46c: LN (average fold change): −0.440
  Filip1l: LN (average fold change): −0.295
  Fkbp5: LN (average fold change): 0.573
  Fosb: LN (average fold change): −0.556
  Fosl2: LN (average fold change): −0.387
  Foxp1: LN (average fold change): −0.169
  Fyn: LN (average fold change): −0.230
  Gapdh: LN (average fold change): 0.206
  Gapt: LN (average fold change): −0.204
  Gnb1: LN (average fold change): −0.247
  Grasp: LN (average fold change): −0.617
  Gtf2i: LN (average fold change): 0.283
  H2-Aa: LN (average fold change): 0.220
  H2-Ab1: LN (average fold change): 0.238
  H2-Eb1: LN (average fold change): 0.228
  H2afj: LN (average fold change): 0.166
  Hes6: LN (average fold change): 0.290
  Hist1h1c: LN (average fold change): 0.792
  Hist2h4: LN (average fold change): 1.036
  Ier2: LN (average fold change): −0.265
  Ier5: LN (average fold change): 0.332
  Ifi30: LN (average fold change): 0.256
  Ifrd1: LN (average fold change): −0.459
  Igha: LN (average fold change): 0.596
  Igkc: LN (average fold change): 0.194
  Itpkb: LN (average fold change): −0.230
  Jun: LN (average fold change): 0.499
  Junb: LN (average fold change): −0.174
  Jund: LN (average fold change): −0.422
  Kdm6b: LN (average fold change): −0.488
  Klf4: LN (average fold change): −0.763
  Klk1: LN (average fold change): 0.243
  Kmt2e: LN (average fold change): −0.156
  Lag3: LN (average fold change): 0.315
  Lgals1: LN (average fold change): 0.174
  Lmnb1: LN (average fold change): −0.415
  Ly6c1: LN (average fold change): −0.173
  Lyz1: LN (average fold change): −1.858
  Mcl1: LN (average fold change): −0.199
  Mcpt1: LN (average fold change): 0.479
  Mcpt2: LN (average fold change): 0.749
  Mir142hg: LN (average fold change): −0.649
  Mpeg1: LN (average fold change): 0.185
  Napsa: LN (average fold change): 0.245
  Neat1: LN (average fold change): 0.364
  Nfkbia: LN (average fold change): −0.191
  Nfkbiz: LN (average fold change): −0.288
  Npc2: LN (average fold change): 0.166
  Nr4a1: LN (average fold change): −0.422
  Nr4a3: LN (average fold change): −0.556
  Odc1: LN (average fold change): −0.325
  Os9: LN (average fold change): 0.265
  Pik3ip1: LN (average fold change): 0.445
  Pim1: LN (average fold change): −0.188
  Plek: LN (average fold change): −0.205
  Plekho2: LN (average fold change): −0.406
  Pltp: LN (average fold change): 0.260
  Pnrc1: LN (average fold change): −0.212
  Ppia: LN (average fold change): 0.186
  Ppp1r16b: LN (average fold change): −0.419
  Ppp2ca: LN (average fold change): −0.356
  Psap: LN (average fold change): 0.202
  Ptp4a1: LN (average fold change): −0.201
  Ptpre: LN (average fold change): −0.452
  Rel: LN (average fold change): −0.305
  Rgs1: LN (average fold change): 0.548
  Rilpl2: LN (average fold change): −0.158
  Rnase6: LN (average fold change): 0.160
  Rnf19b: LN (average fold change): −0.314
  Rpn2: LN (average fold change): 0.272
  Runx3: LN (average fold change): −0.200
  S1pr4: LN (average fold change): 0.331
  Sell: LN (average fold change): 0.172
  Selplg: LN (average fold change): 0.183
  Sf3b1: LN (average fold change): 0.237
  Siah2: LN (average fold change): −0.303
  Skil: LN (average fold change): −0.246
  Sla2: LN (average fold change): 0.243
  Smc6: LN (average fold change): −0.180
  Socs3: LN (average fold change): 0.385
  Spsb2: LN (average fold change): −0.508
  Tgif1: LN (average fold change): −0.548
  Tnfaip8l2: LN (average fold change): 0.307
  Traf4: LN (average fold change): −0.199
  Trim25: LN (average fold change): −0.239
  VgIl4: LN (average fold change): −0.419
  Vps37b: LN (average fold change): −0.292
  Wnk1: LN (average fold change): −0.262
  Zc3h12a: LN (average fold change): −0.495
  Zfand5: LN (average fold change): −0.220
  Zfp36l2: LN (average fold change): 0.365
Gene Abhd17c
  percentage of expressing cells in OVA-treated group: 0.52
Gene Abhd17c, OVA vs PBS
  LN (average fold change): 0.599
Gene Arf6
  percentage of expressing cells in OVA-treated group: 0.429
Gene Arf6, OVA vs PBS
  LN (average fold change): 0.610
Gene Arl4a
  percentage of expressing cells in OVA-treated group: 0.256
Gene Arl4a, OVA vs PBS
  LN (average fold change): 0.781
Gene Arl5c
  percentage of expressing cells in OVA-treated group: 0.04
Gene Arl5c, OVA vs PBS
  LN (average fold change): −1.873
Gene Arpc2
  percentage of expressing cells in OVA-treated group: 0.769
Gene Arpc2, OVA vs PBS
  LN (average fold change): 0.318
Gene BC031181
  percentage of expressing cells in OVA-treated group: 0.365
Gene BC031181, OVA vs PBS
  LN (average fold change): −0.512
Gene Cbarp
  percentage of expressing cells in OVA-treated group: 0.193
Gene Cbarp, OVA vs PBS
  LN (average fold change): 0.886
Gene Ccl1
  percentage of expressing cells in OVA-treated group: 0.203
Gene Ccl1, OVA vs PBS
  LN (average fold change): 1.335
Gene Ccrl2
  percentage of expressing cells in OVA-treated group: 0.192
Gene Ccrl2, OVA vs PBS
  LN (average fold change): −0.742
Gene Cd52
  percentage of expressing cells in OVA-treated group: 0.581
Gene Cd52, OVA vs PBS
  LN (average fold change): 0.644
Gene Cited2
  percentage of expressing cells in OVA-treated group: 0.176
Gene Cited2, OVA vs PBS
  LN (average fold change): −0.724
Gene Cntnap2
  percentage of expressing cells in OVA-treated group: 0.074
Gene Cntnap2, OVA vs PBS
  LN (average fold change): −1.008
Gene Coq10b
  percentage of expressing cells in OVA-treated group: 0.332
Gene Coq10b, OVA vs PBS
  LN (average fold change): −0.690
Gene Cox8a
  percentage of expressing cells in OVA-treated group: 0.798
Gene Cox8a, OVA vs PBS
  LN (average fold change): 0.285
Gene Cwc25
  percentage of expressing cells in OVA-treated group: 0.061
Gene Cwc25, OVA vs PBS
  LN (average fold change): −1.439
Gene Cycs
  percentage of expressing cells in OVA-treated group: 0.531
Gene Cycs, OVA vs PBS
  LN (average fold change): 0.561
Gene Ddx5
  percentage of expressing cells in OVA-treated group: 0.886
Gene Ddx5, OVA vs PBS
  LN (average fold change): −0.276
Gene Dtx1
  percentage of expressing cells in OVA-treated group: 0.05
Gene Dtx1, OVA vs PBS
  LN (average fold change): −1.600
Gene Eef1a1
  percentage of expressing cells in OVA-treated group: 0.997
Gene Eef1a1, OVA vs PBS
  LN (average fold change): 0.236
Gene Eef1b2
  percentage of expressing cells in OVA-treated group: 0.709
Gene Eef1b2, OVA vs PBS
  LN (average fold change): 0.395
Gene Eef2
  percentage of expressing cells in OVA-treated group: 0.927
Gene Eef2, OVA vs PBS
  LN (average fold change): 0.240
Gene Eif1
  percentage of expressing cells in OVA-treated group: 0.996
Gene Eif1, OVA vs PBS
  LN (average fold change): 0.152
Gene Eif3e
  percentage of expressing cells in OVA-treated group: 0.67
Gene Eif3e, OVA vs PBS
  LN (average fold change): 0.416
Gene Eif3h
  percentage of expressing cells in OVA-treated group: 0.686
Gene Eif3h, OVA vs PBS
  LN (average fold change): 0.298
Gene Emd
  percentage of expressing cells in OVA-treated group: 0.235
Gene Emd, OVA vs PBS
  LN (average fold change): −0.729

Reference: patent US20220143148A1, “COMPOSITIONS AND METHODS FOR MODULATING CGRP SIGNALING TO REGULATE INTESTINAL INNATE LYMPHOID CELLS” (The Broad Institute, Inc., priority 2019, published 2022)
